The assay deals with recombinant hACE2-AviTag protein (human) (UniProt Q9BYF1). The assay is described as follows: SPR.

Drawing on article PMC8376421, this text covers Kd for 1 substance.

Sequence of UniProt Q9BYF1 (Q9BYF1 18-740): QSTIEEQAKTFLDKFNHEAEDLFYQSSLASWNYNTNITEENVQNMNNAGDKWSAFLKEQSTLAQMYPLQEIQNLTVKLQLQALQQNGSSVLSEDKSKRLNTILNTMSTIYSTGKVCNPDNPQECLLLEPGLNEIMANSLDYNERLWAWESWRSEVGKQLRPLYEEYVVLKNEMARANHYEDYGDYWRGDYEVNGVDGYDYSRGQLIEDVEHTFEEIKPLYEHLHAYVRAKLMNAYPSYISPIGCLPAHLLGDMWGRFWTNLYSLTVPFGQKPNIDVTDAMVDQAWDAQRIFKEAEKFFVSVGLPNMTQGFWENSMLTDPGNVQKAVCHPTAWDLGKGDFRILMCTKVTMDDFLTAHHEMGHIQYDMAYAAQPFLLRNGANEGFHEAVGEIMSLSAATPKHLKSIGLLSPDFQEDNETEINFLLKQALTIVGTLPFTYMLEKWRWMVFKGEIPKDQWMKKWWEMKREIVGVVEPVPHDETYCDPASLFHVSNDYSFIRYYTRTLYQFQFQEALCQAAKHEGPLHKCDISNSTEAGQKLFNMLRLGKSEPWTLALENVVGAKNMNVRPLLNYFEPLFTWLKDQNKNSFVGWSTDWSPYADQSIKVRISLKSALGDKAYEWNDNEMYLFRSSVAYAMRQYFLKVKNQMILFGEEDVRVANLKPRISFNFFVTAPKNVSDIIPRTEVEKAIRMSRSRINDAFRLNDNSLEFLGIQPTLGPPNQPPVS

With “SARS-CoV-2 spike RBD-MBP fusion protein (domain or fragment)”, the dissociation constant Kd came out at 19 nM.
